Experimental data from the RNAGym collection of RNA variant scans (doi:10.7554/elife.80360).

B1: Twister Ribozyme (parent)
chain: AACACUGCCAAUGCCGGUCCCAAGCCCGGAUAAAAGUGGAGGGGGCGG

Variants of: B1
Assay: self-cleavage, relative activity (ratio to wild type); higher = more cleavage; co-transcriptional

Variant	self-cleavage
AACACUGCCAAUGCCGGUCCCAAGCCGGGAUAAAAUUGGAGGGGGCGG [C27G G36U]	0.0875
AACACUGCCAAUGCCGGUCCCAAGCCGGGAUAAAAAUGGAGGGGGCGG [C27G G36A]	0.0994
AACACUGCCAAUGCCGGUCCCAAGCGCGGAUAAAAGUGGAGGGGCCGG [C26G G45C]	0.117
AACACUGCCAAUGCCGGUCCCAAGCGCGGAUAAAAGUGGAGGGGACGG [C26G G45A]	0.154
AACACUGCCAAUGCCGGUCCCAAGCCGGGAUAAAAGUGGAGGAGGCGG [C27G G43A]	0.0971
AACACUGCCAAUGCCGGUCCCAAGCCGGGAUAAAAGUGGAGGCGGCGG [C27G G43C]	0.0881
AACACUGCCAAUGCCGGUCCCAAGCCGGGAUAAAAGUGGAGGUGGCGG [C27G G43U]	0.0926
AACACUGCCAAUGCCGGUCCCAAGCUCGGAUCAAAGUGGAGGGGGCGG [C26U A32C]	0.451
AACACUGCCAAUGCCGGUCCCAAGCUCGGAUUAAAGUGGAGGGGGCGG [C26U A32U]	0.34
AACACUGCCAAUGCCGGUCCCAAGCUCGGAUGAAAGUGGAGGGGGCGG [C26U A32G]	0.411
AACACUGCCAAUGCCGGUCCCAAGCCAGGAUAAGAGUGGAGGGGGCGG [C27A A34G]	0.139
AACACUGCCAAUGCCGGUCCCAAGCCAGGAUAACAGUGGAGGGGGCGG [C27A A34C]	0.0922
AACACUGCCAAUGCCGGUCCCAAGCCGGGAUGAAAGUGGAGGGGGCGG [C27G A32G]	0.0742
AACACUGCCAAUGCCGGUCCCAAGCUCGGAAAAAAGUGGAGGGGGCGG [C26U U31A]	0.432
AACACUGCCAAUGCCGGUCCCAAGCCAGGAUAAAAGUGGGGGGGGCGG [C27A A40G]	0.145
AACACUGCCAAUGCCGGUCCCAAGCCAGGAUAAAAGUGGUGGGGGCGG [C27A A40U]	0.142
AACACUGCCAAUGCCGGUCCCAAGCUCGUAUAAAAGUGGAGGGGGCGG [C26U G29U]	0.204
AACACUGCCAAUGCCGGUCCCAAGCUCGCAUAAAAGUGGAGGGGGCGG [C26U G29C]	0.0821
AACACUGCCAAUGCCGGUCCCAAGCUCGGGUAAAAGUGGAGGGGGCGG [C26U A30G]	0.419
AACACUGCCAAUGCCGGUCCCAAGCUCGGCUAAAAGUGGAGGGGGCGG [C26U A30C]	0.0974
AACACUGCCAAUGCCGGUCCCAAGCCAGGAUAAAAGUGGAGGAGGCGG [C27A G43A]	0.148
AACACUGCCAAUGCCGGUCCCAAGCCAGGAUAAAAGUGGAGGCGGCGG [C27A G43C]	0.136

Variant	self-cleavage
AACACUGCCAAUGCCGGUCCCAAGCCGGGGUAAAAGUGGAGGGGGCGG [C27G A30G]	0.0912
AACACUGCCAAUGCCGGUCCCAAGCCGGGCUAAAAGUGGAGGGGGCGG [C27G A30C]	0.105
AACACUGCCAAUGCCGGUCCCAAGCGCGGAUAAAAGUGGAGCGGGCGG [C26G G42C]	0.139
AACACUGCCAAUGCCGGUCCCAAGCGCGGAUAAAAGUGGAGGAGGCGG [C26G G43A]	0.128
AACACUGCCAAUGCCGGUCCCAAGCGCGGAUAAAAGUGGAGGCGGCGG [C26G G43C]	0.141
AACACUGCCAAUGCCGGUCCCAAGCCAGGAUAAAAGUGGAGGGGACGG [C27A G45A]	0.334
AACACUGCCAAUGCCGGUCCCAAGCCAGGAUAAAAGUGGAGGGGUCGG [C27A G45U]	0.207
AACACUGCCAAUGCCGGUCCCAAGCCGAGAUAAAAGUGGAGGGGGCGG [C27G G28A]	0.0984
AACACUGCCAAUGCCGGUCCCAAGCCGCGAUAAAAGUGGAGGGGGCGG [C27G G28C]	0.216
AACACUGCCAAUGCCGGUCCCAAGCCGUGAUAAAAGUGGAGGGGGCGG [C27G G28U]	0.0803
AACACUGCCAAUGCCGGUCCCAAGCCAAGAUAAAAGUGGAGGGGGCGG [C27A G28A]	0.423
AACACUGCCAAUGCCGGUCCCAAGCUCGGAUAAAAGGGGAGGGGGCGG [C26U U37G]	0.118
AACACUGCCAAUGCCGGUCCCAAGCUCGGAUAAAAGCGGAGGGGGCGG [C26U U37C]	0.116
AACACUGCCAAUGCCGGUCCCAAGCCAGGAUAAAAGUGGAGGGGGCGC [C27A G48C]	0.563
AACACUGCCAAUGCCGGUCCCAAGCCGGUAUAAAAGUGGAGGGGGCGG [C27G G29U]	0.0759
AACACUGCCAAUGCCGGUCCCAAGCCAGGAUAAAAGUUGAGGGGGCGG [C27A G38U]	0.33
AACACUGCCAAUGCCGGUCCCAAGCCAGGAUAAAAGUCGAGGGGGCGG [C27A G38C]	0.573
AACACUGCCAAUGCCGGUCCCAAGCCAGGAUAAAAGUAGAGGGGGCGG [C27A G38A]	0.241
AACACUGCCAAUGCCGGUCCCAAGCUGGGAUAAAAGUGGAGGGGGCGG [C26U C27G]	0.0958
AACACUGCCAAUGCCGGUCCCAAGCUUGGAUAAAAGUGGAGGGGGCGG [C26U C27U]	0.115
AACACUGCCAAUGCCGGUCCCAAGCUAGGAUAAAAGUGGAGGGGGCGG [C26U C27A]	0.102
AACACUGCCAAUGCCGGUCCCAAGCUCGGAUAAAAGUGGAGGGGUCGG [C26U G45U]	0.145

Variant	self-cleavage
AACACUGCCAAUGCCGGUCCCAAGCCGGGAUAAAAGUGGAGGGCGCGG [C27G G44C]	0.133
AACACUGCCAAUGCCGGUCCCAAGCCGGGAUAAAAGUGGAGGGUGCGG [C27G G44U]	0.0884
AACACUGCCAAUGCCGGUCCCAAGCCAGGAUAAAAGUGGAGGGUGCGG [C27A G44U]	0.41
AACACUGCCAAUGCCGGUCCCAAGCCAGGAUAAAAGUGGAGGGAGCGG [C27A G44A]	0.648
AACACUGCCAAUGCCGGUCCCAAGCCAGGAUAAAAGUGGAGGGCGCGG [C27A G44C]	0.298
AACACUGCCAAUGCCGGUCCCAAGCUCGGAUAAAAGUGGAUGGGGCGG [C26U G41U]	0.145
AACACUGCCAAUGCCGGUCCCAAGCUCGGAUAAAAGUGGACGGGGCGG [C26U G41C]	0.154
AACACUGCCAAUGCCGGUCCCAAGCUCGGAUAAAAGUGGAGGGAGCGG [C26U G44A]	0.537
AACACUGCCAAUGCCGGUCCCAAGCUCGGAUAAAAGUGGAGGGUGCGG [C26U G44U]	0.249
AACACUGCCAAUGCCGGUCCCAAGCCAGGAUAAAUGUGGAGGGGGCGG [C27A A35U]	0.742
AACACUGCCAAUGCCGGUCCCAAGCCAGGAUAAAGGUGGAGGGGGCGG [C27A A35G]	0.0986
AACACUGCCAAUGCCGGUCCCAAGCCAGGAUAAACGUGGAGGGGGCGG [C27A A35C]	0.58
AACACUGCCAAUGCCGGUCCCAAGCGCGGAGAAAAGUGGAGGGGGCGG [C26G U31G]	0.348
AACACUGCCAAUGCCGGUCCCAAGCGCGGAUAAAAGUGGAGGGGGCAG [C26G G47A]	0.177
AACACUGCCAAUGCCGGUCCCAAGCGCGGAUAAAAGUGGAGGGGGCUG [C26G G47U]	0.116
AACACUGCCAAUGCCGGUCCCAAGCGCGGAUAAAAGUGGAGGGGGCCG [C26G G47C]	0.145
AACACUGCCAAUGCCGGUCCCAAGCCAGGAUAAAAGUGGAGGGGGAGG [C27A C46A]	0.416
AACACUGCCAAUGCCGGUCCCAAGCCAGGAUAAAAGUGGAGGGGGGGG [C27A C46G]	0.466
AACACUGCCAAUGCCGGUCCCAAGCCAGGAUAAAAGUGGAGGGGGUGG [C27A C46U]	0.639
AACACUGCCAAUGCCGGUCCCAAGCGCGGAUAAAAGUGGAGGGAGCGG [C26G G44A]	0.515
AACACUGCCAAUGCCGGUCCCAAGCGCGGAUAAAAGUGGAGGGUGCGG [C26G G44U]	0.184
AACACUGCCAAUGCCGGUCCCAAGCCAGGAUAAAAGUGGAGAGGGCGG [C27A G42A]	0.0939

Variant	self-cleavage
AACACUGCCAAUGCCGGUCCCAAGCCAGGAUAAAAGGGGAGGGGGCGG [C27A U37G]	0.0964
AACACUGCCAAUGCCGGUCCCAAGCCAGGAUAAAAGCGGAGGGGGCGG [C27A U37C]	0.136
AACACUGCCAAUGCCGGUCCCAAGCCAGGAUAAAAGAGGAGGGGGCGG [C27A U37A]	0.138
AACACUGCCAAUGCCGGUCCCAAGCCAGGAUGAAAGUGGAGGGGGCGG [C27A A32G]	0.483
AACACUGCCAAUGCCGGUCCCAAGCCAGGAUUAAAGUGGAGGGGGCGG [C27A A32U]	0.446
AACACUGCCAAUGCCGGUCCCAAGCGCGGAUAAAAGUGGAGGGGGCGA [C26G G48A]	0.107
AACACUGCCAAUGCCGGUCCCAAGCCAGGAUAAAAGUGAAGGGGGCGG [C27A G39A]	0.128
AACACUGCCAAUGCCGGUCCCAAGCCAGGAUAAAAGUGUAGGGGGCGG [C27A G39U]	0.0773
AACACUGCCAAUGCCGGUCCCAAGCUCGGAUAAAGGUGGAGGGGGCGG [C26U A35G]	0.169
AACACUGCCAAUGCCGGUCCCAAGCUCGGAUAAACGUGGAGGGGGCGG [C26U A35C]	0.446
AACACUGCCAAUGCCGGUCCCAAGCUCGGAUAAAUGUGGAGGGGGCGG [C26U A35U]	0.553
AACACUGCCAAUGCCGGUCCCAAGCCAGGACAAAAGUGGAGGGGGCGG [C27A U31C]	0.495
AACACUGCCAAUGCCGGUCCCAAGCUCGGAUAAAAGUGGAGGGGGCGG [C26U]	0.601
AACACUGCCAAUGCCGGUCCCAAGCCAGGCUAAAAGUGGAGGGGGCGG [C27A A30C]	0.12
AACACUGCCAAUGCCGGUCCCAAGCCAGGUUAAAAGUGGAGGGGGCGG [C27A A30U]	0.707
AACACUGCCAAUGCCGGUCCCAAGCUCGGAUAAAAGUGGAGGGGGCGA [C26U G48A]	0.185
AACACUGCCAAUGCCGGUCCCAAGCUCGGAUAAAAGUGGAGGGGGCGU [C26U G48U]	0.32
AACACUGCCAAUGCCGGUCCCAAGCUCGGAUAAAAGUGGAGGGGGCGC [C26U G48C]	0.301
AACACUGCCAAUGCCGGUCCCAAGCCGGGAUAAAAGUGGAGCGGGCGG [C27G G42C]	0.082
AACACUGCCAAUGCCGGUCCCAAGCCGGGAUAAAAGUGGAGAGGGCGG [C27G G42A]	0.0529
AACACUGCCAAUGCCGGUCCCAAGCUCGGAUAAGAGUGGAGGGGGCGG [C26U A34G]	0.147
AACACUGCCAAUGCCGGUCCCAAGCCGGGAUAAAAGUGGAGGGGGAGG [C27G C46A]	0.0878

Variant	self-cleavage
AACACUGCCAAUGCCGGUCCCAAGCCGGGAUAAAAGUGGAGGGGGUGG [C27G C46U]	0.105
AACACUGCCAAUGCCGGUCCCAAGCCAGGAUAAAAGUGGAAGGGGCGG [C27A G41A]	0.119
AACACUGCCAAUGCCGGUCCCAAGCCGGGAUAAAAGUGGGGGGGGCGG [C27G A40G]	0.062
AACACUGCCAAUGCCGGUCCCAAGCCGGGAUAAAAGUGGUGGGGGCGG [C27G A40U]	0.107
AACACUGCCAAUGCCGGUCCCAAGCCGGGAUAAAAGUGGCGGGGGCGG [C27G A40C]	0.119
AACACUGCCAAUGCCGGUCCCAAGCUCUGAUAAAAGUGGAGGGGGCGG [C26U G28U]	0.142
AACACUGCCAAUGCCGGUCCCAAGCUCAGAUAAAAGUGGAGGGGGCGG [C26U G28A]	0.106
AACACUGCCAAUGCCGGUCCCAAGCUCCGAUAAAAGUGGAGGGGGCGG [C26U G28C]	0.134
AACACUGCCAAUGCCGGUCCCAAGCCGGGAUAAAAGUGUAGGGGGCGG [C27G G39U]	0.123
AACACUGCCAAUGCCGGUCCCAAGCCGGGAUAAAAGUGAAGGGGGCGG [C27G G39A]	0.0704
AACACUGCCAAUGCCGGUCCCAAGCCAGGAUAAAAGUGGAGGGGGCUG [C27A G47U]	0.186
AACACUGCCAAUGCCGGUCCCAAGCCAGGAUAAAAGUGGAGGGGGCAG [C27A G47A]	0.238
AACACUGCCAAUGCCGGUCCCAAGCUCGGAUAAAAGUCGAGGGGGCGG [C26U G38C]	0.225
AACACUGCCAAUGCCGGUCCCAAGCUCGGAUAAAAGUAGAGGGGGCGG [C26U G38A]	0.157
AACACUGCCAAUGCCGGUCCCAAGCUCGGAUAAAAGUGAAGGGGGCGG [C26U G39A]	0.118
AACACUGCCAAUGCCGGUCCCAAGCUCGGAUAAAAUUGGAGGGGGCGG [C26U G36U]	0.133
AACACUGCCAAUGCCGGUCCCAAGCUCGGAUAAAAAUGGAGGGGGCGG [C26U G36A]	0.0777
AACACUGCCAAUGCCGGUCCCAAGCCGGGAUAGAAGUGGAGGGGGCGG [C27G A33G]	0.139
AACACUGCCAAUGCCGGUCCCAAGCCAGGAUAAAAGUGGAGGGGGCGG [C27A]	0.672
AACACUGCCAAUGCCGGUCCCAAGCCGGGAUAAAAGUGGAGGGGGCGG [C27G]	0.0872
